The values that follow come from paper PMC5510004, “Recruitment and positioning determine the specific role of the XPF‐ERCC1 endonuclease in interstrand crosslink repair”.

Numbering of substitutions follows the chain as printed.

Data set [1] concerns the target T1, XPF C225R;ERCC1 wild type (hsERCC1) (Xenopus laevis;Homo sapiens?, UniProt A0A8J0PXV9;P07992 1-897;1-297, C225R|).
T1 sequence 1: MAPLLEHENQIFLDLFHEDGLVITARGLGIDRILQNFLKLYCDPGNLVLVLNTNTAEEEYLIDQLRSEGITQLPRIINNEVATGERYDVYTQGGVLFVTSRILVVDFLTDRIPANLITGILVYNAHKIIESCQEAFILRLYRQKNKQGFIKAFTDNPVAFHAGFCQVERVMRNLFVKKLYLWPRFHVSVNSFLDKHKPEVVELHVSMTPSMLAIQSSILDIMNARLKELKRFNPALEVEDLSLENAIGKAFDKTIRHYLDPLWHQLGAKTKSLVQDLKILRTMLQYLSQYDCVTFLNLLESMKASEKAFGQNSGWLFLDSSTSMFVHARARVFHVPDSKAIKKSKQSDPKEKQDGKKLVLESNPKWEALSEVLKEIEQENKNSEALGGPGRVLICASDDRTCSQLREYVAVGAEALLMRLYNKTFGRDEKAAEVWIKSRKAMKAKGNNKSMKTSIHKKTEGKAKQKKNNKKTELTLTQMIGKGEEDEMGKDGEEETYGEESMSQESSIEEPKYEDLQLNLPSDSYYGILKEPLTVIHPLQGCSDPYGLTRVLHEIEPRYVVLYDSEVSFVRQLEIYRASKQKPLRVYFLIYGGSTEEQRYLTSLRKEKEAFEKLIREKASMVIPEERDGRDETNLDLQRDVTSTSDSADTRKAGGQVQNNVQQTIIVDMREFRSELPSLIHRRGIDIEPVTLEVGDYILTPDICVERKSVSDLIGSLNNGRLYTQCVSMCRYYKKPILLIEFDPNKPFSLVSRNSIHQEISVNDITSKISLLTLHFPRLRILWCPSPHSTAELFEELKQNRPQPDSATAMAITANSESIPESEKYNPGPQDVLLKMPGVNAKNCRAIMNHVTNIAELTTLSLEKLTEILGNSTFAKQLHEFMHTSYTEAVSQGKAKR
T1 sequence 2: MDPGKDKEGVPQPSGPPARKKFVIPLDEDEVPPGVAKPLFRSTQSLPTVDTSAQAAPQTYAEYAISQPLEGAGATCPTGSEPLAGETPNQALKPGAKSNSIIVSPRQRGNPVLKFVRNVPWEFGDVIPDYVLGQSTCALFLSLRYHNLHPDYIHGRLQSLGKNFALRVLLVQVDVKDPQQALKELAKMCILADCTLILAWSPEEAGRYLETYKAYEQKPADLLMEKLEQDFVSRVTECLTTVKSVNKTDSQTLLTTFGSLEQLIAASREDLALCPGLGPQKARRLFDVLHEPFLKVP
In words: fluorescence anisotropy; 2 mM Ca2+; comparable to wild type; 25 mM Hepes pH 8.0, 15% glycerol, 0.1 mg/ml BSA, 2 mM CaCl2, 10 nM DNA, 1 h at room temperature. The following applies: protein: recombinant;recombinant; tags: FLAG;His; copies: 1;1; label: 5'-FAM on F1; three strands 1:1:1.

Data set [2] addresses T2, XPF L219R;ERCC1 wild type (hsERCC1) (Xenopus laevis;Homo sapiens?, UniProt A0A8J0PXV9;P07992 1-897;1-297, L219R|).
T2 sequence 1: T1 sequence 1 with L219R, R225C
T2 sequence 2: T1 sequence 2
Described as above. The following applies: protein: recombinant;recombinant; tags: FLAG;His; copies: 1;1; label: 5'-FAM on F1; three strands 1:1:1.

B1: 3' flap DNA substrate (F1+F2+F3) (dsDNA)
DNA 1: CGCGATGCGGATCCAA
DNA 2: CCTAGACTTAAGAGGCCAGACTTGGATCCGCATCGC
DNA 3: GGCCTCTTAAGTCTAGG
As for B1, the binding result in data set [1] and in data set [2] was “binds” in each case.
